Laboratory results as given in article PMC7806720, “Restoration of the reduced CLSP activity alleviates memory impairment in Alzheimer disease” (Translational Psychiatry, 2021).

Legend:
[1] = target: recombinant apolipoprotein E4 (UniProt P02649); experiment: plate binding assay with HiBiT luminescence (Nano-Glo HiBiT Extracellular Detection System); ApoE4 or adiponectin coated on 96-well plates (20 pM in 50 mM carbonate buffer pH 9.6, overnight 4 °C), blocked with 1% skim milk in PBS; CLSP-HiBiT in PBS added, overnight 4 °C; washed with PBS with 0.1% NP-40; in duplicate
recombinant adiponectin = target: T1, recombinant adiponectin (UniProt Q15848 19-244); experiment: as above; conditions: both partners purified
T1 construct: adiponectin; also called ADN; source: recombinant
T1 sequence (looked up): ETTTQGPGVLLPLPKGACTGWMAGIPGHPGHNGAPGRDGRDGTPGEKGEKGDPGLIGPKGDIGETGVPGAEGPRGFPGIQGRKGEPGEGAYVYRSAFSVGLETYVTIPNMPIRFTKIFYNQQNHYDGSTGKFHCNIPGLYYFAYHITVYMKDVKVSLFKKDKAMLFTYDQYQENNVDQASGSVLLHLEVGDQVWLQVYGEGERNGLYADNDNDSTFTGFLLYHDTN

B1: CLSP-HiBiT (natural protein, human, UniProt Q9NZT1 1-146, looked up)
chain: MAGELTPEEEAQYKKAFSAVDTDGNGTINAQELGAALKATGKNLSEAQLRKLISEVDSDGDGEISFQEFLTAAKKARAGLEDLQVAFRAFDQDGDGHITVDELRRAMAGLGQPLPQEELDAMIREADVDQDGRVNYEEFARMLAQE
notes: calmodulin-like skin protein (CLSP); also called recombinant CLSP-HiBiT; source: recombinant
Q: With B1 as the binder, how does the Kd [1] read?
A: 8.8 pM

Q: What about the Kd (recombinant adiponectin) of the same binder?
A: 7.8 pM
